Data published in article PMC4382993.

Molecular target: T1, Fur (Escherichia coli O157:H7 (EDL933?)) (UniProt P0A9B1)
T1 sequence: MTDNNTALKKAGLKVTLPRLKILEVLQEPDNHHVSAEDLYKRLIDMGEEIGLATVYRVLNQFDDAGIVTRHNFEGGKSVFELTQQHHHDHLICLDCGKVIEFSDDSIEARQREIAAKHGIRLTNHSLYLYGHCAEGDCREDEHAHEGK
Experiment: EMSA
Details: BirA EMSA: 1 mM Tris-HCl pH 7.5, 0.1 mM EDTA, 0.2 mM DTT, 5 mM MgCl2, 10 mM KCl, 20 uM biotin, 1 mM ATP (DIG Gel Shift Kit); Fur EMSA: Invitrogen E33075 kit …

Sequence | binding
AACAGAAGACTGGTTGCTGGAGAGTCCTTCTCGGGTATCGATTGTCGAAGATAAACATATTTATTATTTTCATTTATTGAAAGACTTTTTTACATCATTACCAGATGCTTGCTTTATTGATAGTGAGCAGAGAGAGAATGCATTATTAATGATTGGTAAAGTTATCGACTATAAGGAGGAAATTATTTGATATTAATTACTCAATAATTTTTTTGTTTTCCTGAGAAAAATTATCAAGAGGTATATAGATGGATACATCAAATGCAACATCCGTTGTTAATGTGAGTGCGAGTTCTTC (double strand) [LEE Box1 fragment] | no binding
GTTGGCGGCATCATTGTATCCGATGAAGATAATTGCTCTAGTTTATCAAATTGCTTATCGAGCAAAGAGGCGAGAGTATGTTGCATTATTGCTTTTGACATGTTTGCGCGATGATTATTATCTTTATGAAAAATTTGGCAAAGATACCACTTCTTATTAGACAGGAAAATACCCATTTGTTTATATTCGTTACTAACGGCCAGGATATTGCAGAGTCTGATAAATGTATCTGTTGGAACCTGACGAAAATCACCACTAAGCTCAATATATAGAACCCAGTAGTTTCCAAAATCG (double strand) [LEE Box4 fragment] | no binding
GACATTAAACTTGATCCTGGCGAGGCCAACAATATACAGCTTATTAATGATGCAAACACACCGCATAATAAAATTATAATAGAAAATGAATATATTAGAATAACTTTAGACCCATTAGAGCAAATAAGTATTTTATTGAATTCATTTAAAGATAATTATCTTAGCATTATTCAGGAATGATGATATGTCTCAATTAATGACCATTGGCTCACAGCCAATATTTTTAATTATTGTATTTTTTCTGTTATCATTACTGCCAA (double strand) [LEE Box5 fragment] | no binding
